Our source for the binding result and Kd values is patent US20160177397, “APTAMER FOR DETECTION OF ALPHA-METHYLACYL-COA RACEMASE AND DIAGNOSTIC KIT THEREOF” (NATIONAL TAIWAN UNIVERSITY, published 2016).

Data set [1] addresses Bovine serum albumin (BSA) (Bos taurus, UniProt P02769 P02769:25-607). Briefly: ELAA, 0.5 uM aptamer, 0.2 uM protein. Conditions: tags: Sigma-Aldrich; label: biotin; stem-loops, B-form-like CD. How it is done:
(§1) Enzyme-linked aptamer assays with typical black opaque 96-well polystyrene microtiter plates that resembled ELISA assays were carried out for (1) assessment of the affinity and specificity of the selected AMACR binding aptamers and (2) proof-of-concept fluorescent AMACR detection using aptamers. For the first task, varied concentrations of aptamers were tested with a constant protein concentration ([…]); for the second task, varied concentrations of proteins were detected using a constant aptamer concentration (500 nM). Both used the following ELAA protocol unless otherwise noted. For protein coating, AMACR diluted in 0.05 M sodium carbonate buffer (pH9.6) was added to the wells of the plates (100 μL/well) and incubated at 4° C. overnight. After incubation, the wells were washed three times with 200 μL/well of selection buffer containing 0.05% Tween 20. For blocking, each AMACR-coated well was added with 200 μL of 3 wt % BSA in the selection buffer containing 0.05% Tween 20 and was then incubated at 37° C. for 2 h. Afterward, wells were washed as previously described. Before protein assays, biotin-labeled aptamer sequences were suspended in the selection buffer, heated to 95° C. for 5 min, and gradually cooled to 25° C. Then each protein-coated well was added with 100 μL of aptamer solution (in the selection buffer) and was incubated at room temperature for 1 h followed by the same wash procedure. After that, each well was added with two drops (ca. 100 μL) of an alkaline phosphatase-conjugated streptavidin (Strep-AP) solution (0.003 mg/mL) (Abcam) and incubated at room temperature for 30 min followed by the washes. For fluorescent signal development, each well was added with 100 μL of AttoPhos® AP fluorescent substrate solution (Promega) and incubated in dark for at least 15 min. Finally, the fluorescent signal of each well was read by a fluorescent microplate reader (excitation at 435 nm and emission at 555 nm).
(§2) FIG. 5A represented the results of the equilibrium AMACR total binding assays using the fluorescent ELAA format for AMC51, AMC55, and AMC56.

For data set [2], the target named is T1, Human serum albumin (HSA) (Homo sapiens, UniProt P02768 P02768:25-609). Briefly: ELAA, 0.5 uM aptamer, 0.2 uM protein. Particulars: tags: Sigma-Aldrich; label: biotin; stem-loops, B-form-like CD. As for the experimental part: as §1, §2
T1 sequence (P02768 25-609, one chain of several): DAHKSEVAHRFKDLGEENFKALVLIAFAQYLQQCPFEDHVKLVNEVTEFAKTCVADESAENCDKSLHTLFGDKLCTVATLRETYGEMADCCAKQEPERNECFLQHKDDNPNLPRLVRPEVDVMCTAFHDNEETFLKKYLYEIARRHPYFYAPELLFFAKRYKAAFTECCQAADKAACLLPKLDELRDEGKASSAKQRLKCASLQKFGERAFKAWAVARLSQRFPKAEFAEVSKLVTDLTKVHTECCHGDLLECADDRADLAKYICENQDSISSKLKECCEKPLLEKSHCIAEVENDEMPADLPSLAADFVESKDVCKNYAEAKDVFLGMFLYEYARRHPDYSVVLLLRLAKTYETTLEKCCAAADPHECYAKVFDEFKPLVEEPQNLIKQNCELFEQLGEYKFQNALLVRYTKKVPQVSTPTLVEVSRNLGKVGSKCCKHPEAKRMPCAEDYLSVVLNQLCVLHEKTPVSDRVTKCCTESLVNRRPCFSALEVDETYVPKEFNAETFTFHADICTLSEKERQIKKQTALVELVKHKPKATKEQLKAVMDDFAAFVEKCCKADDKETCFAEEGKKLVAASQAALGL
In data set [3] the target is T2, AMACR (alpha-methylacyl-CoA racemase, isoform CRA_c), homemade recombinant (Homo sapiens, UniProt Q9UHK6 Q9UHK6:1-382).
T2 sequence: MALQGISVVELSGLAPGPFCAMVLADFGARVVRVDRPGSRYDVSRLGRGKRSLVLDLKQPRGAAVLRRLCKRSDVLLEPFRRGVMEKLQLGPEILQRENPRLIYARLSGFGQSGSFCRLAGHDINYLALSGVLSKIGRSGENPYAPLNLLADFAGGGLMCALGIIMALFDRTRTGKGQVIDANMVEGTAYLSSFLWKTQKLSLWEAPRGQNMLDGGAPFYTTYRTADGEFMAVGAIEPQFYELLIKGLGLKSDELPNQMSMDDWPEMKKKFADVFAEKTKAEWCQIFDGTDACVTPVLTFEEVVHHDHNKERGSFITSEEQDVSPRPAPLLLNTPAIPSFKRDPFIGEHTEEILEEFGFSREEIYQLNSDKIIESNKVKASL
The data set can be described thus: apparent Kd; fluorescent ELAA, same buffer, room temperature. Particulars: label: biotin; stem-loops, B-form-like CD. As for the experimental part:
as §1, with “Then each protein-coated well was added with 100 μL of aptamer solution (in the selection buffer) and was incubated at room temperature for 1 h followed by the same wash procedure. After that, each well was added with two drops (ca. 100 μL) of an alkaline phosphatase-conjugated streptavidin (Strep-AP) solution (0.003 mg/mL) (Abcam) and incubated at room temperature for 30 min followed by the washes. For fluorescent signal development, each well was added with 100 μL of AttoPhos® AP fluorescent substrate solution (Promega) and incubated in dark for at least 15 min.” left out, “nm). […]” for “nm).”

Data set [4] concerns the target T2, AMACR (alpha-methylacyl-CoA racemase, …). Briefly: apparent Kd; fluorescent ELAA, AMACR coated at 0.2 uM; 50 mM Tris/HCl, 100 mM NaCl, 4 mM KCl, 2.5 mM MgCl2, 1 mM CaCl2, pH 7.4, room temperature. Conditions: label: biotin; stem-loops, B-form-like CD. As for the experimental part: as §1, with “Then each protein-coated well was added with 100 μL of aptamer solution (in the selection buffer) and was incubated at room temperature for 1 h followed by the same wash procedure. After that, each well was added with two drops (ca. 100 μL) of an alkaline phosphatase-conjugated streptavidin (Strep-AP) solution (0.003 mg/mL) (Abcam) and incubated at room temperature for 30 min followed by the washes. For fluorescent signal development, each well was added with 100 μL of AttoPhos® AP fluorescent substrate solution (Promega) and incubated in dark for at least 15 min.” left out, “nm). […]” for “nm).”

In data set [5] the target is T1, Human serum albumin (HSA). Briefly: ELAA, 0.5 uM aptamer, 0.2 uM protein; also no significant cross-reactivity in FIG. 6 dose series. Particulars: tags: Sigma-Aldrich; label: biotin; stem-loops, B-form-like CD. How it is done:
as §1, with “Then each protein-coated well was added with 100 μL of aptamer solution (in the selection buffer) and was incubated at room temperature for 1 h followed by the same wash procedure. After that, each well was added with two drops (ca. 100 μL) of an alkaline phosphatase-conjugated streptavidin (Strep-AP) solution (0.003 mg/mL) (Abcam) and incubated at room temperature for 30 min followed by the washes. For fluorescent signal development, each well was added with 100 μL of AttoPhos® AP fluorescent substrate solution (Promega) and incubated in dark for at least 15 min.” left out, “nm). […]” for “nm).”

Sequence of Bovine serum albumin (BSA) (P02769 25-607, one chain of several): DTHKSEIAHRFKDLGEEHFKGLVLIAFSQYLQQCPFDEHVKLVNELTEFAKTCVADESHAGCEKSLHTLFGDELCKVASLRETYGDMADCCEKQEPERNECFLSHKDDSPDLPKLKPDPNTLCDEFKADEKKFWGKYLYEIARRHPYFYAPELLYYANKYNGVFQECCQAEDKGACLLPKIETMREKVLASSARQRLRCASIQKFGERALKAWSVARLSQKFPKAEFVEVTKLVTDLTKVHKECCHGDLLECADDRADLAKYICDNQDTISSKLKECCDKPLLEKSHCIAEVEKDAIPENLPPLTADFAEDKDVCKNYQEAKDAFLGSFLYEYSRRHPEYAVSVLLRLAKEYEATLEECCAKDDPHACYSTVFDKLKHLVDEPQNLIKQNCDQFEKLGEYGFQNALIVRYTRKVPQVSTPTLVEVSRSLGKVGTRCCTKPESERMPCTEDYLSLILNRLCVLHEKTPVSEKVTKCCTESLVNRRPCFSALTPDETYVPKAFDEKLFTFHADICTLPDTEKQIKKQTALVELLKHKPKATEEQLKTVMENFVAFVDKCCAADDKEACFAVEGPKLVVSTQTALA

B1: AMC56 (ssDNA)
DNA: CCCTACGGCGCTAACCCAGCTACTCTAGAACCCATTATATTTTGGGCCACCGTGCTACAA
On to B1, for which the binding result in data set [1] and in data set [2] was “no binding” in each case. Besides, in data set [3], the Kd amounted to 65 nM.

B2: AMC55 (ssDNA)
DNA: CCCTACGGCGCTAACCAGTATGTTCCGGATTGGAGAGCTCCTGTTGCCACCGTGCTACAA
B2: the binding result in data set [1] and in data set [2] was “no binding” in each case. For the same molecule, in data set [3], the Kd is 139 nM.

B3: AMC51 (ssDNA)
DNA: CCCTACGGCGCTAACCCATGCTACGAATTCGTTGTTAAACAATAGGCCACCGTGCTACAA
With B3, the binding result in data set [1] and in data set [5] was “no binding” each time. Besides, the Kd in data set [4] stood at 49 nM.
